This passage reports activity (% of total DNA converted to cointegrate) and activity (kanamycin resistant colonies) results from US5888732.

Data set [1] has as its system Lambda integrase (Int) + IHF. Put plainly: cleavage_in_vitro. The following applies: agarose gel; 50 mM Tris pH 7.8, 70 mM KCl, 5 mM spermidine, 25 C 45 min.
For data set [2], the target named is Lambda integrase (Int) + excisionase (Xis) + IHF (UniProt P03700+P03699+P0A6X7+P0A6Y1). Kind of data set: cell_activity.
Data set [3] has as its target Cre recombinase (bacteriophage P1) (UniProt P06956). Put plainly: cell_activity. To be noted: 140 without Cre.
Sequence of UniProt P06956 (P06956 whole entry): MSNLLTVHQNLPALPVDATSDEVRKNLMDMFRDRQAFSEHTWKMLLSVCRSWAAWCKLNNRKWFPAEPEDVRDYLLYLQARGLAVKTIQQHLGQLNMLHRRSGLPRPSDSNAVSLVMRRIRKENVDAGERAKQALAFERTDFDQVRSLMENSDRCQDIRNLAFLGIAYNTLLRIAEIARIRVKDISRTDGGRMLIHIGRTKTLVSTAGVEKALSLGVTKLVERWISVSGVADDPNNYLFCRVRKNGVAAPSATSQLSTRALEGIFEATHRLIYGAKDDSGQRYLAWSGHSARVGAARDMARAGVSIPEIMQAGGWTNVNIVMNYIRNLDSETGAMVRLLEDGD

Sequence of UniProt P03700 (P03700 whole entry, chain 1 of 4): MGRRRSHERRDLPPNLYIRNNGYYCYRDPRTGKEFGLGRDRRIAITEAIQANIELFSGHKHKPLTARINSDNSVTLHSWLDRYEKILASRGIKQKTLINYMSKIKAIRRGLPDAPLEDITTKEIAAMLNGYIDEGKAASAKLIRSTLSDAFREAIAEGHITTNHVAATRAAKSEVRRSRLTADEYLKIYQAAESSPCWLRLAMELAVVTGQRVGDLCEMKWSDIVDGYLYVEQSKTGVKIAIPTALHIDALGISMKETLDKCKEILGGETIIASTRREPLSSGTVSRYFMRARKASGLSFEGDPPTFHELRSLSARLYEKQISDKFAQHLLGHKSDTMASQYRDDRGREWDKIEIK
Sequence of UniProt P03700 (P03699 whole entry, chain 2 of 4): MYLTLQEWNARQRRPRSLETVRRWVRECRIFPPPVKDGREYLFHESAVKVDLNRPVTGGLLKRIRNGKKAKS
Sequence of UniProt P03700 (P0A6X7 2-99, chain 3 of 4): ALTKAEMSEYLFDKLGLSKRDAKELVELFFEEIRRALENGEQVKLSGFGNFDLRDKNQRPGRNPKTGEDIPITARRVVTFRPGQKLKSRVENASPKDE
Sequence of UniProt P03700 (P0A6Y1 whole entry, chain 4 of 4): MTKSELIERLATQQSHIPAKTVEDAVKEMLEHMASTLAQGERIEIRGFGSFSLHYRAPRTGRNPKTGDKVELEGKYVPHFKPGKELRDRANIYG

As for “attB wild type (pEZC705) ; attP wild type (pEZC726)”, the activity (% of total DNA converted to cointegrate) in data set [1] was found to be 5. With attR1 (pEZC1305) ; attLwt (pEZC1313), the activity (kanamycin resistant colonies) in data set [2] (with Cre/loxP, background 1) was 4. In the case of attR2 (pEZC1309) ; attLwt (pEZC1313), in data set [2] (with Cre/loxP, background 9), the activity (kanamycin resistant colonies) is 0. Take “attRwt (lacking P1 and H1; pEZC1301) ; attL1 (pEZC1317)”: in data set [2] (with Cre/loxP, background 1), the activity (kanamycin resistant colonies) was 47. For “attRwt (lacking P1 and H1; pEZC1301) ; attL2 (pEZC1321)”, in data set [2] (with Cre/loxP, background 1), the activity (kanamycin resistant colonies) was 0.

In the case of “attRwt (lacking P1 and H1; pEZC1301) ; attLwt (pEZC1313)”, the activity (kanamycin resistant colonies) in data set [2] (in vitro recombination with Cre on loxP as second site, background 1) came to 147. Consider loxP 511, for which the activity (kanamycin resistant colonies) in data set [3] (same reaction as loxP, both sites required for product) stood at 760.

Turning to loxP wild type, the activity (kanamycin resistant colonies) in data set [3] (pEZC602 x pEZC629 via loxP and loxP 511, 37 C, 33 mM NaCl) was 760.
